# According to US20230159649A1, “METHODS AND COMBINATIONS FOR DUAL TARGETING OF TNF FAMILY MEMBERS” (La Jolla Institute for Immunology, priority 2020, published 2023):
# Entries after “also recorded” stand apart in the source; their conditions may differ.
# B1: rLIGHT: recombinant LIGHT (TNFSF14) protein (protein)
# chain: DGPAGSWEQLIQERRSHEVNPAAHLTGANSSLTGSGGPLLWETQLGLAFLRGLSYHDGALVVTKAGYYYIYSKVQLGGVGCPLGLASTITHGLYKRTPRYPEELELLVSQQSPCGRATSSSRVWWDSSFLGGVVHLEAGEKVVVRVLDERLVRLRDGTRSYFGAFMV
# Experiments:
# airways of naïve mice [1] = test: Injection of recombinant LIGHT / TL1A into the airways of naïve mice: airway remodeling; format: in vivo, mouse; settings: for airway remodeling (accumulation of collagen, trichrome): 10 μg intratracheally on two consecutive days, day 3, rLIGHT in DR3−/− mice, rTL1A in LIGHT−/− mice; for remodeling in mice lacking T cells and ILCs: RAG and RAGγc−/− mice; for fibrosis and remodeling after injection of the recombinant protein alone (collagen, αSMA / smooth muscle, airway hyperresponsiveness): naïve mice, into the airways (or skin)
# Protocol: Naïve mice were injected with PBS or 10 μg rLIGHT or rTL1A intratracheally on two consecutive days. On day 3, accumulation of collagen was analyzed in the airways with trichrome staining. (FIG. 3A) rLIGHT was injected into DR3−/− mice, or rTL1A into LIGHT−/− mice. (FIG. 3B) rLIGHT was combined with rTL1A (5 μg each), and the extent of collagen deposition scored as well as the extent of inflammation scored. (FIG. 3C) rLIGHT and rTL1A were injected into RAG−/− mice.
# The inventors furthered these observations by testing whether LIGHT and TL1A could induce fibrosis and remodeling independently of other inflammatory activity, and of each other, by injecting the recombinant proteins into naïve mice. […] Moreover, the effects of LIGHT and TL1A were not reliant on the other cytokine shown by injection of the proteins into the respective knockout animals.
# airways of naïve mice [2] = test: as above; format: in vivo, mouse; settings: 10 μg intratracheally on two consecutive days, day 3
# lung fibroblasts = test: Lung fibroblasts stimulated with rTL1A or rLIGHT; format: cell-based
# [3] = tested on: normal human bronchial epithelial cells (HBE); test: Human bronchial epithelial cells (HBE) stimulated with rLIGHT or rTL1A; format: cell-based; settings: for periostin and TSLP expression (IF staining): 48 hrs
# Text: HBE were stimulated with rLIGHT without (black bars) or with (gray bars) budesonide. Data are mean fold increase in mRNA over unstimulated cells after 3 days, measured by RT-PCR. Steroid sensitivity was arbitrarily set at >75% inhibition of the LIGHT-induced response, indicated to the left of the thick dotted lines.
# HBE were stimulated with rLIGHT (left) or rTL1A (right) for 48 hrs and expression of periostin and TSLP examined by IF staining.
# [4] = tested on: human airway fibroblasts (HAF); test: Human airway fibroblasts (HAF) stimulated with rLIGHT or rTL1A with or without TGF-β; format: cell-based
# Text: FIG. 9A-FIG. 9D illustrate LIGHT and TL1A induce inflammatory and remodeling activity in human airway fibroblasts (HAF). HAF were stimulated with rLIGHT or rTL1A with or without TGF-β. (FIG. 9A) Proliferation (left, thymidine incorporation) or αSMA mRNA (right) induced by LIGHT, TGF-β or both. (FIG. 9B) mRNA for select genes induced by LIGHT. (FIG. 9C) Collagen 13 and periostin protein (IF stain; DAPI is used for […]) and mRNA induced by TL1A. (FIG. 9D) Proliferation (left, thymidine incorporation) and αSMA mRNA (right) induced by TL1A, TGF-β, or their combination. Data individual cultures or means of triplicates. mRNA either fold increase over unstimulated cells or relative to GAPDH.
# The inventors compare rTL1A to rLIGHT, titrating each molecule (5-100 ng/ml, their optimal dose range, see (60, 69)). The inventors perform kinetic analyses over 3 days (e.g. 4, 24, 48, 72 hr) and compare data from 4-6 individual cell populations. The inventors initially gain data with normal HAF. […] The inventors additionally have shown that rTL1A can promote activities in HAF that might overlap with, but also be distinct from, LIGHT (FIGS. 9C and 9D).
# [5] = tested on: normal human epidermal keratinocytes; test: Human epidermal keratinocytes stimulated with rLIGHT or rTL1A; format: cell-based; settings: for NF-κB activation (p-p65/RelA): keratinocytes, 25 ng/ml rTL1A or PBS
# Protocol: FIG. 2A-FIG. 2C illustrate LTβR, HVEM, and DR3 are co-expressed or active in lung epithelial cells and fibroblasts, and keratinocytes and dermal fibroblasts. Cultured normal human bronchial epithelial cells and lung fibroblasts, and epidermal keratinocytes and dermal fibroblasts, were stained for expression of (FIG. 2A) LTβR and HVEM, (FIG. 2B) DR3 (isotype controls, gray), or (FIG. 2C) p-p65/RelA NF-κB after culture with 25 ng/ml rTL1A or PBS. Data representative of 2-4 experiments each.
# Experimental Design: 1.1. LIGHT and TL1A co-operate to promote hyperplasia and inflammatory features in human keratinocytes: Firstly, the inventors test how signaling from LIGHT and TL1A directly regulate keratinocytes in vitro. Studies are performed with titrated doses of rLIGHT or rTL1A (0.1-100 ng/ml) vs. PBS, added to normal human epidermal keratinocytes from a minimum of 4 donors (obtained from Lonza) with kinetic analyses, as described previously (7, 8). LIGHT and TL1A have maximal activity in the range 20-100 ng/ml, similar to IL-13 or IL-17. […] The inventors control for specificity with siRNA knockdown of DR3, and then determine synergistic or additive activities, cross-titrating rLIGHT together with rTL1A and measure the extent of cell division and growth. The inventors also test if co-operation is at the level of the receptors (e.g. TL1A enhances expression of the LIGHT receptors).
# dermal fibroblasts = test: Dermal fibroblasts stimulated with rLIGHT; format: cell-based, human; settings: preliminary studies
# Text: LIGHT and TL1A synergistic in driving proliferation and inflammatory activity in dermal fibroblasts: The inventors determine inflammatory events that are triggered by LIGHT and TL1A in normal human dermal fibroblasts, using cells from a minimum of 4 donors, with kinetic analyses. The inventors find that both LIGHT and TL1A induce fibroblast proliferation, and may have differential abilities to induce myofibroblast differentiation. […] The inventors also test a range of inflammatory factors relevant to AD or psoriasis that have receptors on fibroblasts (e.g. LIGHT, IL-13, TGF-β, FGF, TNF, IL-17) to determine if they can promote DR3.
# skin of naïve mice = test: Subcutaneous / intradermal injection of recombinant LIGHT into mice: skin fibrosis and inflammation; format: in vivo, mouse
# Text: Masson trichrome (collagen), alpha Smooth muscle actin (αSMA) and TSLP immunofluorescent staining of skin sections. The data is representative of 6 to 10 mice per group.
# Diseases such as atopic dermatitis (AD) and psoriasis present with extensive tissue remodeling, features shared with diseases of the lungs, such as severe asthma. The inventors have shown that a genetic deficiency in the TNF superfamily molecule LIGHT (TNFSF14, CD258), and blocking LIGHT binding to its receptors, reduced remodeling in the lungs in mouse models of severe asthma and systemic sclerosis (1, 2). […] LIGHT interacts with the TNF superfamily receptors HVEM (herpesvirus entry mediator, TNFRSF14) and LTβR (lymphotoxin beta receptor, TNFRSF3), and TL1A with DR3 (TNFRSF25) (4-6). The studies disclosed herein investigate the combination use of LIGHT and TL1A to control skin tissue remodeling relevant to AD and psoriasis, directly driving deregulated activity in keratinocytes and dermal fibroblasts. In support, the inventors have reported that LIGHT-deficient mice were protected from developing skin inflammation in models of scleroderma (7) and allergen-induced AD (8). […] The inventors have observed that the absence of TL1A/DR3 interactions also markedly limits disease in the same models of AD and psoriasis, and that keratinocytes and fibroblasts co-express DR3 together with the receptors for LIGHT. The inventors determine that LIGHT and TL1A are effectors of skin pathology through driving epidermal hyperplasia and remodeling molecules such as collagen, periostin, and alpha smooth muscle actin in keratinocytes and/or fibroblasts. Through production of other factors such as TSLP, IL-33, and chemokines in these structural cells, LIGHT and TL1A maintain disease through orchestrating immune inflammatory cells in the skin.
molecule,measurement,setting,value
rTL1A: recombinant TL1A (TNFSF15) protein [reference compound],"airway remodeling (accumulation of collagen, trichrome)",airways of naïve mice [1],promote airway remodeling
same,remodeling in mice lacking T cells and ILCs,airways of naïve mice [1],induced remodeling
same,"fibrosis and remodeling after injection of the recombinant protein alone (collagen, αSMA / smooth muscle, airway hyperresponsiveness)",airways of naïve mice [1]; listed as TL1A,substantial collagen deposition and αSMA accumulation; also recorded: induced a fibroproliferative syndrome
same,"fibrosis and remodeling after injection of the recombinant protein alone (collagen, αSMA / smooth muscle, airway hyperresponsiveness)",airways of naïve mice [1]; listed as recombinant TL1A,"rapidly promotes smooth muscle alterations, collagen deposition, and airway hyperresponsiveness"
same,αSMA expression in airways,airways of naïve mice [2],upregulated
same,periostin and collagen in lung fibroblasts,lung fibroblasts; protein alone,induced periostin and collagen
same,proliferation of lung fibroblasts,lung fibroblasts; protein alone,induced proliferation
same,αSMA in lung fibroblasts,lung fibroblasts; protein alone,not αSMA
same,proliferation and αSMA together with TGF,lung fibroblasts; with TGF-α as printed,synergized with TGF-α
same,periostin and TSLP expression (IF staining),[3],promotes fibrotic activity
same,periostin and TSLP expression (IF staining),[3]; listed as TL1A,upregulated
same,collagen 13 and periostin protein and mRNA,[4],promoting collagen 13 and periostin
same,proliferation of HAF (thymidine incorporation),[4]; protein alone,induced proliferation
same,proliferation of HAF in combination with TGF-β,[4]; with TGF-β,augmented by TGF-β
same,αSMA mRNA in combination with TGF-β,[4]; with TGF-β,enhanced TGF-β driven αSMA
same,NF-κB activation (p-p65/RelA),[5],enhanced NF-κB activation
same,NF-κB activation (p-p65/RelA),[5]; listed as TL1A,induce NF-κB activation
B1,"airway remodeling (accumulation of collagen, trichrome)",airways of naïve mice [1],promote airway remodeling
same,remodeling in mice lacking T cells and ILCs,airways of naïve mice [1],induced remodeling
same,"fibrosis and remodeling after injection of the recombinant protein alone (collagen, αSMA / smooth muscle, airway hyperresponsiveness)",airways of naïve mice [1],reproduce this fibrotic activity
same,"fibrosis and remodeling after injection of the recombinant protein alone (collagen, αSMA / smooth muscle, airway hyperresponsiveness)",airways of naïve mice [1]; listed as LIGHT,"rapidly promotes smooth muscle alterations, collagen deposition, and airway hyperresponsiveness; also recorded: substantial collagen deposition and αSMA accumulation; also recorded: increases the accumulation of collagen and alpha-SMA; also recorded: induced a fibroproliferative syndrome"
same,αSMA expression in airways,airways of naïve mice [2],upregulated
same,"chemokines (CCL5, CCL20 CXCL5 CXCL11) in lung fibroblasts",lung fibroblasts,upregulated some chemokines
same,periostin and TSLP expression (IF staining),[3],upregulated
same,"expression of adhesion molecules, proteinases, cytokines and chemokines (mRNA, RT-PCR), steroid sensitivity","[3]; 3 days, without or with budesonide",induce expression; also recorded: promotes steroid-resistant responses
same,collagen 13 and periostin protein and mRNA,[4],the former shared with LIGHT but not the latter
same,myofibroblast differentiation (upregulation of αSMA mRNA),[4]; protein alone,cannot drive myofibroblast differentiation
same,proliferation of HAF (thymidine incorporation),[4]; protein alone,promote proliferation
same,"adhesion molecules, chemokines, cytokines and metalloproteases mRNA","[4]; through the LTβR, siRNA knockdown",induced
same,"TSLP, periostin and αSMA expression",dermal fibroblasts,"upregulated TSLP, periostin, and αSMA"
same,induction of TSLP and periostin from keratinocytes,[5],induce molecules from keratinocytes
same,proliferation/hyperplasia of human keratinocytes,[5]; via both HVEM and LTβR,induce proliferation/hyperplasia
same,"skin fibrosis and remodeling (trichrome, αSMA, TSLP staining)","skin of naïve mice; WT mice, intradermal injection, 20 μg/mouse vs PBS",induces scleroderma; also recorded: induces skin fibrosis and remodeling
same,cytokines and chemokines induced in vivo,skin of naïve mice; injected s.c. into mice,induced the cytokines IL-33 and IL-25; also recorded: inducing several chemokines
same,skin disease features after subcutaneous injection,"skin of naïve mice; naïve mice, subcutaneous injection","induced features of AD, scleroderma, and psoriasis"
